From US20110002927A1 (DELENEX THERAPEUTICS, published 2011) come the findings set out here.

Test [1] has as its target T1, recombinant human TNF-alpha (rhTNF-α) (human, UniProt P01375 77-233). In words: cell-based or functional assay.
The target of test [2] is T1, recombinant human TNF-alpha (rhTNF-α). In words: method not stated (data not shown).

T1 sequence (P01375 77-233 limits assumed): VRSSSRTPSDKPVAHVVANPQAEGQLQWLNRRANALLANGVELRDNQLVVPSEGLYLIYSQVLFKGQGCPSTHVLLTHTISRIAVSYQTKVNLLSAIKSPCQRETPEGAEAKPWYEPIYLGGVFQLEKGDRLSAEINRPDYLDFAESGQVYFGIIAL

B1: ESBA105 (scFv)
scFv: DIVMTQSPSSLSASVGDRVTLTCTASQSVSNDVVWYQQRPGKAPKLLIYSAFNRYTGVPSRFSGRGYGTDFTLTISSLQPEDVAVYYCQQDYNSPRTFGQGTKLEVKRGGGGSGGGGSGGGGSSGGGSQVQLVQSGAEVKKPGASVKVSCTASGYTFTHYGMNWVRQAPGKGLEWMGWINTYTGEPTYADKFKDRFTFSLETSASTVYMELTSLTSDDTAVYYCARERGDAMDYWGQGTLVTVSS
notes: expressed in and purified from E. coli; 26 kDa; also called E105; anti-TNFalpha single-chain antibody (scFv) ESBA105
Consider B1, for which the “EC50 in the L929 TNF-α assay (rescue of actinomycin D sensitized mouse L929 fibroblasts from rhTNF-α induced apoptosis, XTT)” value in test [1] stood at 12.5 ng/mL. Also, in test [2], the Kd was 2.19 nM, the koff worked out at 0.0126 s⁻¹ and the kon came out at 5.72e+06 M⁻¹ s⁻¹.
